Laboratory results published in US20250122508A1 (K2B THERAPEUTICS, published 2025).

B1: mouse CD47 on the surface of mouse red blood cells and CT26.CL25 cells (receptor, UniProt Q61735 19-303, looked up)
chain: QLLFSNVNSIEFTSCNETVVIPCIVRNVEAQSTEEMFVKWKLNKSYIFIYDGNKNSTTTDQNFTSAKISVSDLINGIASLKMDKRDAMVGNYTCEVTELSREGKTVIELKNRTVSWFSPNEKILIVIFPILAILLFWGKFGILTLKYKSSHTNKRIILLLVAGLVLTVIVVVGAILLIPGEKPVKNASGLGLIVISTGILILLQYNVFMTAFGMTSFTIAILITQVLGYVLALVGLCLCIMACEPVHGPLLISGLGIIALAELLGLVYMKFVASNQRTIQPPRNR
notes: whole, on cells; also called CD47 present on the surface of the CT26.CL25 cells

Experiments:
[1] = target: B1; assay: flow cytometry of CT26.CL25 cells after incubation with mouse RBC loaded with 200 pmol labeled vSIRPα
Protocol: (§1) Each cell line, grown independently in a cell culture dish, was detached from the dish with trypsin-EDTA. The cells from each dish were then washed with DPBS, counted, and diluted to 10⁵ cells/100 μl PBS. 4 μl of the FAM-vSIRPα-siRNA/RBC resuspension (totaling 10³ RBC and 100 pmol of the vSIRPα-siRNA) was mixed, independently, with each 100 μl dilution of CT26.CL25 cells and CaCO2 cells. Each mixture was incubated for 30 minutes at room temperature (20-25° C.).
(§2) vSIRPα labeled with Cy5.5 was tested for its ability to be transferred from RBC to CD47 present on the surface of CT26.CL25 cells. Experiments were carried out as in Example 2, except that 200 pmol of the labeled vSIRPα, rather than 500 pmol of conjugate, was incubated with the RBC.

[2] = target: T1, Murine TSP-1 (7859-TH, R&D Systems) labeled with Cy5.5 (murine, UniProt P35441 19-1170, Cy5.5 label (site not stated)); assay: flow cytometry of CT26.CL25 cells after incubation with mouse RBC loaded with 5 µg labeled murine TSP-1
T1 construct: also called Cy5.5-labeled murine thrombospondin-1; Cy5.5 labeled TSP-1
T1 sequence (P35441 19-1170 limits assumed): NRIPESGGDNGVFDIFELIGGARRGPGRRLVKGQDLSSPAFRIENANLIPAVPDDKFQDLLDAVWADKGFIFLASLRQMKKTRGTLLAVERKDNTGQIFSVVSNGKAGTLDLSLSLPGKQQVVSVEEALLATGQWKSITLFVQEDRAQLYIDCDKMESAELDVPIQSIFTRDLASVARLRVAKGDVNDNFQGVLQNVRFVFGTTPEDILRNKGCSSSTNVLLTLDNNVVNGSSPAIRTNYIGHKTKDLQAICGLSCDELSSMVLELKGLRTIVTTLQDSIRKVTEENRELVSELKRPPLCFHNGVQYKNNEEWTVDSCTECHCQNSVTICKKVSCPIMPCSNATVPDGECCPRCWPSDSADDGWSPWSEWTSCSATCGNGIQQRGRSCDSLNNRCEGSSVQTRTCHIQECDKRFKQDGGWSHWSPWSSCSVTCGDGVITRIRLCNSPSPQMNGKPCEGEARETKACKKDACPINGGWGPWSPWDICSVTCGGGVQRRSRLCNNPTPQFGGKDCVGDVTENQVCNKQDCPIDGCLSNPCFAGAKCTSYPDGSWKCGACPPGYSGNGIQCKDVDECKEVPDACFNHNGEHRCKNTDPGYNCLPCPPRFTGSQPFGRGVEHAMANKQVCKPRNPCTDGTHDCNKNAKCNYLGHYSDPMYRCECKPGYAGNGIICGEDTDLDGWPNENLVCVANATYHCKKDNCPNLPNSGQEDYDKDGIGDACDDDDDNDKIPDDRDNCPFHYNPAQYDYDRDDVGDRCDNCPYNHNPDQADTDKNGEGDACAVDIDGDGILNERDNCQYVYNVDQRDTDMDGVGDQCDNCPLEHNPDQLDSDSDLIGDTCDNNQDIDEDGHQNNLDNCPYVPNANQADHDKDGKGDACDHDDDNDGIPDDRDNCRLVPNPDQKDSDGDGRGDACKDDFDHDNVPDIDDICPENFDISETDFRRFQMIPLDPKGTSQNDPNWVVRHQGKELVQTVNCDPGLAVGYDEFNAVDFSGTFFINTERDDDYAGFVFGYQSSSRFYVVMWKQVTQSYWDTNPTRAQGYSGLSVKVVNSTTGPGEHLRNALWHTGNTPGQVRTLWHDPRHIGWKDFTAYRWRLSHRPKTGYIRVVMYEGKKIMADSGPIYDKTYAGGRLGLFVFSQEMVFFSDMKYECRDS
Protocol: as §1
as §2, with “Murine TSP-1 (7859-TH, R&D Systems) labeled” for “vSIRPα labeled”, “that 5 μg” for “that 200 pmol”, “of Cy5.5” for “of the”, “labeled TSP-1,” for “labeled vSIRPα,”

binding result [1] | binding result [2] | Binder
binds |  | vSIRPα labeled with Cy5.5 (receptor, Cy5.5 label (site not stated), also called Cy5.5-labeled vSIRPα) EEELQIIQPDKSVLVAAGETATLRCTITSLFPVGPIQWFRGAGPGRVLIYNQRQGPFPRVTTVSDTTKRNNMDFSIRIGNITPADAGTYYCIKFRKGSPDDVEFKSGAGTELSVRAKP
 | binds | B1
